Laboratory results: patent publication US20100286027A1, “ANTI-BACTERIAL COMPOSITIONS” (priority 2008, published 2010)
Values after ≈ are worked out from the molar mass of the structure shown.

Legend:
[1] = tested on: E. coli NB27005* (TolC efflux pump mutant); test: MIC against aerobic gram negative bacteria, efflux pump mutant; type: cell-based, Escherichia coli
H. influenzae NB65027 [2] = test: microbe, parasite or virus in culture; details: Haemophilus influenzae, NB65027, read-out: minimal inhibitory concentration (MIC)
E. coli NB27004 = test: MIC against aerobic gram negative bacteria; type: cell-based, Escherichia coli
P. aeruginosa NB52019 = test: MIC against aerobic gram negative bacteria; type: cell-based, Pseudomonas aeruginosa
[3] = tested on: H. influenzae NB65027-CDS0021* (TolC efflux pump mutant); test: MIC against aerobic gram negative bacteria, efflux pump mutant; type: cell-based, Haemophilus influenzae
[4] = tested on: P. aeruginosa NB52020* (mexAB/oprM efflux pump mutant); test: as above; type: cell-based, Pseudomonas aeruginosa
Escherichia coli (8739) = test: BacTiter-Glo bacterial ATP content viability assay; details: gram −, +/− SD, n = 3, >100 = activity detected but <50% inhibition
[5] = tested on: Enterococcus faecalis (29212); test: BacTiter-Glo bacterial ATP content viability assay; details: Enterococcus faecalis (29212), gram +; +/− SD, n = 3; >100 = activity detected but <50% inhibition
Escherichia coli (25922) = test: BacTiter-Glo bacterial ATP content viability assay; details: gram −, +/− SD, n = 3, >100 = activity detected but <50% inhibition
[6] = tested on: lawn of the indicated bacteria; test: Agar diffusion assay; details: FIG. 11 Panel D; 0.5 mg/ml in sterile PBS per well
[7] = tested on: Staphylococcus aureus (29213); test: BacTiter-Glo bacterial ATP content viability assay; details: Staphylococcus aureus (29213), gram +; +/− SD, n = 3; >100 = activity detected but <50% inhibition
E. coli = test: Bacterial growth inhibition (FIG. 15); type: cell-based, Escherichia coli; details: FIG. 15 Panel B
[8] = tested on: Stenotrophomonas maltophilia (17666); test: BacTiter-Glo bacterial ATP content viability assay; details: gram −, +/− SD, n = 3, >100 = activity detected but <50% inhibition
L. monocytogenes = test: Bacterial growth inhibition (FIG. 15); type: cell-based, Listeria monocytogenes; details: FIG. 15 Panel C
[9] = tested on: Klebsiella pneumoniae (700603); test: BacTiter-Glo bacterial ATP content viability assay; details: gram −, +/− SD, n = 3, >100 = activity detected but <50% inhibition
[10] = tested on: Pseudomonas aeruginosa (27853); test: BacTiter-Glo bacterial ATP content viability assay; details: gram −, +/− SD, n = 3, >100 = activity detected but <50% inhibition
H. influenzae NB65027 [11] = details: aerobic gram negative
[12] = tested on: Salmonella choleraesuis (13076); test: BacTiter-Glo bacterial ATP content viability assay; details: gram −, +/− SD, n = 3, >100 = activity detected but <50% inhibition
Bacillus Subtilis (6633) = test: BacTiter-Glo bacterial ATP content viability assay; details: Bacillus Subtilis (6633), gram +; +/− SD, n = 3; >100 = activity detected but <50% inhibition
[13] = tested on: Listeria monocytogenes (7644); test: BacTiter-Glo bacterial ATP content viability assay; details: Listeria monocytogenes (7644), gram +; +/− SD, n = 3; >100 = activity detected but <50% inhibition
[14] = tested on: Streptococcus pneumoniae (49619); test: BacTiter-Glo bacterial ATP content viability assay; details: gram +, +/− SD, n = 3, >100 = activity detected but <50% inhibition
[15] = Escherichia coli, read-out: minimal inhibitory concentration (MIC)
[16] = Pseudomonas aeruginosa, read-out: minimal inhibitory concentration (MIC)

Molecule: CN(C)[C@@H]1C(O)=C(C(N)=O)C(=O)[C@@]2(O)C(O)=C3C(=O)c4c(O)cccc4[C@@](C)(O)[C@H]3C[C@@H]12 [Tetracycline, reference compound]
- MIC [1, 15]: 0.5 µg/mL (≈ 1.13 µM)
- MIC (H. influenzae NB65027 [2]): 0.5 µg/mL (≈ 1.13 µM)
- MIC (E. coli NB27004; [15]): 4 µg/mL (≈ 9 µM)
- MIC (P. aeruginosa NB52019; [16]): 32 µg/mL (≈ 72 µM)
- MIC ([3]; Haemophilus influenzae, read-out: minimal inhibitory concentration (MIC)): 0.5 µg/mL (≈ 1.13 µM)
- MIC [4, 16]: 1 µg/mL (≈ 2.25 µM)

B1: Nod1: purified recombinant LRR domain of Nod1; human NOD1-LRR is SEQ ID NO: 4 (protein, listed as Homo sapiens)
chain: NKDHFQFTNLFLCGLLSKAKQKLLRHLVPAAALRRKRKALWAHLFSSLRGYLKSLPRVQVESFNQVQAMPTFIWMLRCIYETQSQKVGQLAARGICANYLKLTYCNACSADCSALSFVLHHFPKRLALDLDNNNLNDYGVRELQPCFSRLTVLRLSVNQITDGGVKVLSEELTKYKIVTYLGLYNNQITDVGARYVTKILDECKGLTHLKLGKNKITSEGGKYLALAVKNSKSISEVGMWGNQVGDEGAKAFAEALRNHPSLTTLSLASNGISTEGGKSLARALQQNTSLEILWLTQNELNDEVAESLAEMLKVNQTLKHLWLIQNQITAKGTAQLADALQSNTGITEICLNGNLIKPEEAKVYEDEKRIICF
- antibacterial activity by bacterial ATP content (IC50), [LRR domain] (Escherichia coli (8739)): 29.0 +/− 2.8 microgram/ml
- minimal inhibitory concentration (MIC) ([1]; aerobic gram negative, E. coli NB27005*, TolC efflux pump mutant strain): 32 microgram/ml
- antibacterial activity by bacterial ATP content (IC50), [LRR domain] [5]: >100 microgram/ml
- antibacterial activity by bacterial ATP content (IC50), [LRR domain] (Escherichia coli (25922)): >100 microgram/ml
- anti-bacterial activity by agar diffusion assay [6]: Anti-bacterial activity
- antibacterial activity by bacterial ATP content (IC50), [LRR domain] [7]: 111.3 +/− 13.0 microgram/ml
- E. coli growth (E. coli): inhibited
- antibacterial activity by bacterial ATP content (IC50), [LRR domain] [8]: >100 microgram/ml
- L. monocytogenes growth (L. monocytogenes): inhibited
- antibacterial activity by bacterial ATP content (IC50), [LRR domain] [9]: 30.8 +/− 4.9 microgram/ml
- antibacterial activity by bacterial ATP content (IC50), [LRR domain] [10]: >100 microgram/ml
- minimal inhibitory concentration (MIC) (H. influenzae NB65027 [11]): >128 microgram/ml
- antibacterial activity by bacterial ATP content (IC50), [LRR domain] [12]: >100 microgram/ml
- minimal inhibitory concentration (MIC) (E. coli NB27004): >128 microgram/ml
- minimal inhibitory concentration (MIC) (P. aeruginosa NB52019): >128 microgram/ml
- antibacterial activity by bacterial ATP content (IC50), [LRR domain] (Bacillus Subtilis (6633)): 15.5 +/− 12.0 microgram/ml
- antibacterial activity by bacterial ATP content (IC50), [LRR domain] [13]: 32.0 +/− 2.1 microgram/ml
- minimal inhibitory concentration (MIC) ([3]; aerobic gram negative, H. influenzae NB65027-CDS0021*, TolC efflux pump mutant strain): 4 microgram/ml
- minimal inhibitory concentration (MIC) ([4]; aerobic gram negative, P. aeruginosa NB52020*, mexAB/oprM efflux pump mutant strain): >128 microgram/ml
- antibacterial activity by bacterial ATP content (IC50), [LRR domain] [14]: 13.5 +/− 4.9 microgram/ml
